Laboratory results taken from patent US20030235863A1.

Target: FPR-GFP fusion protein (human) (UniProt P21462)
Experiment: flow cytometry, LRG assembly on DCNi G beads with 30 nM FPR-GFP

Sequence of FPR-GFP fusion protein (human) (P21462 other isoform, or with tags, fused parts or gaps): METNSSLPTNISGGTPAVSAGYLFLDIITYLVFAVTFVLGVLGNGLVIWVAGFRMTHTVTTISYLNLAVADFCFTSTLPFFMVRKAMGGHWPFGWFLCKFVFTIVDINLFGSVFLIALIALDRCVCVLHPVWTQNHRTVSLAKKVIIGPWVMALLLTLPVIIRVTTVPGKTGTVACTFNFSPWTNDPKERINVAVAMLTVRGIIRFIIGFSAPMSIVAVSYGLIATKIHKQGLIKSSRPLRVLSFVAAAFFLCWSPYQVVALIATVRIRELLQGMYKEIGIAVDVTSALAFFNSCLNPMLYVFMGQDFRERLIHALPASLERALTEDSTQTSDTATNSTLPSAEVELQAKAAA

EC50: 5.3 µM
Substance: fML (peptide)
